These results are taken from publication PMC7727368.

This assay concerns the target Fasciola hepatica profilin (FhProfilin), recombinant (Fasciola hepatica). Nature of the assay: SEC; Superdex S75 16/60 in TBS (10 mM Tris-HCl, 300 mM NaCl, pH 8.0), 1 ml/min; elution volume compared with proteins of known molecular weight. (In general: SEC sorts molecules by how far they enter the pores of the column.)

For orientation: stoichiometry N means the number of molecules, sites or subunits per partner or assembly. For “Fasciola hepatica profilin (FhProfilin), recombinant (natural protein)”, the stoichiometry N was found to be 2.
